What was measured:
[1] = system: NIH3T3 (mouse fibroblast cell line); experiment: Inhibition of growth factor activity of VHH homodimer by FGFR antagonist; type: cell-based; details: 10 or 100 ng/mL test substance, 20 nM NVP-BGJ398
Experimental: The cell growth assay for FGF2 was performed according to the following procedure. On Day 1, a suspension including 2.5×10^4 cells/mL of NIH3T3 in DMEM of 10% CS and PS(+) was created, seeded on a CulturPlate-96 (White Opaque 96-well Microplate, manufactured by Perkin Elmer, Cat #6005680) at 100 μL/well, and cultured in a 5% CO2 incubator at 37° C. for 16 to 24 hours. On Day 2, the medium was replaced with FGF2 (PeproTech Cat #AF-100-18B) or serum-free PS(+) DMEM including various test substances, and the cells were further cultured for 2 days. On Day 4, the 96-well plate was left at room temperature for 30 minutes, and then 100 μL of Cell Titer Glo 2.0 Reagent (manufactured by Promega Corporation) at room temperature was added to each well, followed by stirring at 500 rpm for 2 minutes using a plate mixer. The plate was further left to stand for 8 minutes, and then the luminescence in each well was measured with a Synergy HTX plate reader (manufactured by BioTek) with a sensitivity set (Gain) of 200 and a measurement time of 1 s/well.
The addition amounts of FGF2 and #1L4 (hereinafter also referred to as “#1-L4-#1”), which is a dimer of VHH #1 with a linker […], were each 10 or 100 ng/mL.

[2] = system: iPS cells (253G1 cells); experiment: iPS cell culture: evaluation of undifferentiated state (immunostaining); type: cell-based, human; details: second passage, Day 6 (Culture day 20)
Experimental: The cells were cultured in the medium of each group for 3 to 5 weeks, and the following operations were performed on Days 4 to 7 of the passage. After washing the cells with D-PBS, 1 mL/well of 4% formaldehyde was added. After being left to stand for 30 minutes or longer, the solution was removed and washing was performed with D-PBS. 0.1% Triton X-100/D-PBS was added thereto and the mixture was left to stand at room temperature for 3 to 5 minutes. After washing with D-PBS, 1% of BSA/D-PBS was added thereto and the mixture was left to stand for 30 minutes.
An antibody for undifferentiation marker staining, such as OCT4 (Abcam, ab19857) or SSEA4 (Abcam, ab16287), was diluted in 1% BSA/D-PBS at an appropriate ratio, added to a well, which was left to stand for 30 to 60 minutes. After washing with D-PBS, secondary antibodies (a Goat anti-Rabbit IgG antibody (Abcam, ab 150115) and a Goat anti-Mouse IgG antibody (Abcam, ab150077)) were diluted in 1% BSA/D-PBS at an appropriate ratio and added to the wells, which were left to stand with light shielded with an aluminum foil for 30 to 60 minutes. DAPI (DOJINDO LABORATORIES, 340-07971) was diluted with 1% BSA/D-PBS to a concentration of 1 to 10 μg/mL, and added to each well, which was left to stand for 5 minutes. […] The image was acquired by observing the sample under a fluorescence microscope.

[3] = system: mouse fibroblast cell line NIH/3T3; experiment: Promotion of fibroblast growth by VHH (homodimer), cell growth assay; type: cell-based; details: NIH/3T3, serum-free, 2 days, 2-fold dilution series, 4-parameter fit; read-out: EC50 of the growth of cultured fibroblasts
Experimental: A mouse fibroblast cell line NIH/3T3 was used as a fibroblast. A mouse fibroblast cell line NIH/3T3 was obtained from ECACC through a domestic agent, subjected to extended culture, then cryopreserved at −80° C. using CellBanker1 plus (manufactured by ZENOAQ), and used. […]
The cell growth assay for bFGF was performed according to the following procedure. […] The plate was further left to stand for 8 minutes, and then the luminescence in each well was measured with a Synergy HTX plate reader (manufactured by BioTek) with a sensitivity set (Gain) of 200 and a measurement time of 1 s/well. […]
The measurement was performed at three points at each concentration of the test substance, and the conditions were set such that for the measurement at a single concentration, 100 ng/mL of bFGF was set as a positive control and a condition of no addition was set as a negative control. […] The EC50 measurement data were fitted to 4-parameter fit according to an ordinary method by control software attached to a plate reader, and an EC50 value was calculated.

[4] = system: mouse fibroblast cell line NIH/3T3; experiment: Solution preservation stability of bFGF and VHH homodimer, read out by fibroblast growth; type: cell-based; details: 0.5 mg/mL in D-PBS, fibroblast growth on second day
Experimental: bFGF and the VHH homodimer (SEQ ID NO: 23, sequence name: #1-LA-#1, sometimes referred to as a single-domain antibody) was mixed with a D-PBS solution (Fujifilm Wako Pure Chemical Corporation) so that the concentration was 0.5 mg/mL, and incubation was performed at 37° C. for 1 week. Then, the growth promoting abilities for fibroblast growth of four test subjects, which are an incubated VHH homodimer, a pre-incubated bFGF, a VHH homodimer after thawing from freeze-preservation, and bFGF immediately after solutionizing with D-PBS from a freeze-dried product, were evaluated. As a negative control, culture without any of the bFGF and the VHH homodimer was also performed at the same time. The culture conditions were the same as those in Item 1 and Item 2 of the present Example, and the cell growth was evaluated by the number of cells on the second day after the start of culture.

Molecule	cell growth activity with addition of NVP-BGJ398 [1]	undifferentiation markers OCT4 and SSEA4 [2]	EC50 [3] [nM]	cell growth activity after incubation at 37° C. for 1 week [4]
FGF2: fibroblast growth factor (basic), human, recombinant (154aa), positive control; SEQ ID NO: 58 [reference compound]	inhibited	positive	5.1	the same as that in the case of no addition
#1-L4-#1: dimer of VHH #1 with linker L4 (GSEGKSSGSGSESKST), SEQ ID NO: 23 (protein, #1-L4-#1) VHH: QLQLVESGGGSVQAGGSLRLSCAASRSLSRFNVWTWYRQAPVKQRELVASITKSGDTNYAESVKGRFIISRDDDKNTVYLQMNNLKSEDTGIYYCAGSYYSGSYLYPSPGGFSVWGQGTQVTVSSGSEGKSSGSGSESKSTQLQLVESGGGSVQAGGSLRLSCAASRSLSRFNVWTWYRQAPVKQRELVASITKSGDTNYAESVKGRFIISRDDDKNTVYLQMNNLKSEDTGIYYCAGSYYSGSYLYPSPGGFSVWGQGTQVTVSS	inhibited	positive	11.6	exhibited the same cell growth activity as that of bFGF

Source: patent publication US20240279618A1, “RECEPTOR TYROSINE KINASE AGONIST, COMPOSITION FOR CELL CULTURE MEDIUM, AND […] MAINTENANCE COMPOSITION” (SEKISUI CHEMICAL CO., LTD., priority 2021, published 2024)
